biological target: Fc gamma receptor I (human) (UniProt P12314); assay: AlphaScreen or HTRF; AlphaLISA human FCGR binding kit (PerkinElmer), competition: donor and acceptor beads coated with unmodified IgG and FcγR-I; serial dilutions of SPGR-engineered IgG in 1X HiBlock buffer (1 mg/ml to 0.1 μg/ml); 25 °C, 90 min; signal at 615 nm
Chain of UniProt P12314 (P12314 16-292): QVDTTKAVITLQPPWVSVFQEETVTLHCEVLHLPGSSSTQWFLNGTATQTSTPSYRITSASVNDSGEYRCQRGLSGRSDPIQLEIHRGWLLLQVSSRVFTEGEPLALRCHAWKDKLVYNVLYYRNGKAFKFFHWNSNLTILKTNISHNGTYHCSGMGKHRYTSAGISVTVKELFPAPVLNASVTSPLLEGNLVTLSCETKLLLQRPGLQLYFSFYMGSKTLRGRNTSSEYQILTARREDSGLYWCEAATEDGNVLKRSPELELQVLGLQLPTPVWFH

| Substance | signal reduction at 0.1 μg/ml [%] |
| --- | --- |
| SPGR-engineered human serum IgG, sample 1, (F)M3 glycans (terminating with mannose) (antibody) | 60 |
| SPGR-engineered human serum IgG, sample 3, bi-antennary glycans with terminal galactose (antibody) | 60 |
| SPGR-engineered human serum IgG, sample 6, mono-antennary glycans (after GnT-I and GalT) (antibody) | 60 |
| SPGR-engineered human serum IgG, sample 8, bisecting glycans terminating with GlcNAc (antibody) | 60 |
| SPGR-engineered human serum IgG, sample 10, bisecting sialylated glycans (FA2BG2S2 route) (antibody) | 60 |

Results, then the substance that gave them:

| signal reduction at 0.1 μg/ml [%] | Substance |
| --- | --- |
| 60 | SPGR-engineered human serum IgG, sample 2, bi-antennary (F)A2 glycans (terminating with GlcNAc) (antibody) |
| 60 | SPGR-engineered human serum IgG, sample 4, bi-antennary sialylated glycans (antibody) |
| 60 | SPGR-engineered human serum IgG, sample 5, mono-antennary glycans terminating with GlcNAc (antibody) |
| 60 | SPGR-engineered human serum IgG, sample 7, mono-antennary glycans (after GnT-I, GalT and SialylT) (antibody) |
| 60 | SPGR-engineered human serum IgG, sample 9, bisecting glycans (after GnT-III and GalT) (antibody) |

Reference: article PMC8990068
